Experimental data as given in US20220017612A1 (TILOS THERAPEUTICS, published 2022).

Key:
[1] = target: T1, human LAP-TGFβ1 overexpressed on cells (human, UniProt P01137 30-390); test: flow cytometry; black bar HT1080-huB1, grey bar HT1080
T1 construct: HT1080 or P3U1 cells overexpressing wild-type human LAP-TGFβ1; also called HT1080-huB1; HT1080-hβ1

[2] = target: T2, human GARP and human LAP-TGFβ1 co-expressed on P3U1 cells (human, UniProt Q14392 20-662); test: flow cytometry competition on P3U1 cells with human GARP and LAP-TGFβ1; competitor of biotin-28G11 (5 µg competitor, 0.31 µg biotin-28G11)
T2 construct: whole, on cells; also called P3U1 cells over-expressing human GARP and LAP-TGFβ1
T2 sequence (chain, as listed by the source, chain 1 of 2): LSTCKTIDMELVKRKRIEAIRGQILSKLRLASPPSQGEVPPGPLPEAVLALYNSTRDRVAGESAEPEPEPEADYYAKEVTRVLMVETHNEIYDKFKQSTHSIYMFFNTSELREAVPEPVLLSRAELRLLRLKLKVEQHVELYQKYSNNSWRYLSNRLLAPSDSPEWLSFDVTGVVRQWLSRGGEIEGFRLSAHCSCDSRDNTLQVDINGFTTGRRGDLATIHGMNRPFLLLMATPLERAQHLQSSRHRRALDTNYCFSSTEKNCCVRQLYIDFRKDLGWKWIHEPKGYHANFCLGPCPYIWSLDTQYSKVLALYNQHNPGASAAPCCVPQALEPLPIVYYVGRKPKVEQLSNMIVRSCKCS
T2 sequence (Q14392 20-662, chain 2 of 2): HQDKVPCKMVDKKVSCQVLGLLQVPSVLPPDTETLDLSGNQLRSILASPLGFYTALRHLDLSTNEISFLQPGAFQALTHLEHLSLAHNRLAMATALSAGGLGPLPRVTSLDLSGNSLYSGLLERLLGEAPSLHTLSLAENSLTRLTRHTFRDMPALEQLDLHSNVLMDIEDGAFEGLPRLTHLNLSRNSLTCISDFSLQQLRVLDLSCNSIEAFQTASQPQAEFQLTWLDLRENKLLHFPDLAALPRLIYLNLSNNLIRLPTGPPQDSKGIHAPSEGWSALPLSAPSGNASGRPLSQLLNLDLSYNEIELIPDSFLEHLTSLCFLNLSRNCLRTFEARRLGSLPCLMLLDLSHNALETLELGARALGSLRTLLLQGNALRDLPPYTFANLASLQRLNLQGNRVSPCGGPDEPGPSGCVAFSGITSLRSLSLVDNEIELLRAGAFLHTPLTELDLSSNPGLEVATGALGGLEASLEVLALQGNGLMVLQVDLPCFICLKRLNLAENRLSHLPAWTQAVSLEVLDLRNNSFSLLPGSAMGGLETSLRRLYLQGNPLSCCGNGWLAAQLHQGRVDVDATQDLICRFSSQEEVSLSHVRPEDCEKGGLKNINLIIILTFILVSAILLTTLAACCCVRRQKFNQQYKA
Experimental: In the first experiment, the various humanized 28G11 candidates were tested for retention of binding to human LAP-TGFβ1 by competition with biotin-28G11 in a flow cytometry assay.
P3U1 cells over-expressing human GARP and LAP-TGFβ1 were placed in a round-bottom 96-well plate at density of 40,000 cells/well. The cells were washed with FACS buffer (25 mM HEPES, 2 mM EDTA, 2% fetal bovine serum in Hank's Balanced Salt Solution). 50 μL of 1:200 diluted TruStain Mouse FcX (BioLegend) was added to each well, followed by 50 μL of 100 ng/μL of humanized 28G11 construct (H0L0, H0L1, H0L2, H0L3, HILO, H1L1, H1L2, H1L3, H2L0, H2L1, H2L2, H2L3). The antibody was allowed to bind for 10 minutes. 50 μL of 6.2 ng/μL of biotinylated murine hybridoma 28G11_(hyb) was added to each well. The biotinylated antibody was allowed to bind for 10 minutes, and then the cells were washed twice with FACS buffer. The cells were labeled for 15 minutes with allophytocyanin-streptavidin (BioLegend), washed twice with FACS buffer, and analyzed by flow cytometry.

T1 sequence (P01137 30-390): as the sequence (chain, as listed by the source, chain 1 of 2) above

| binding result [1] | binding result [2] | Binder |
| --- | --- | --- |
| binds | binds | 28G11_H2L3 (antibody, human IgG1, kappa) heavy: not shown light: DIQMTQSPSSLSASVGDRLTISCRASQDISNYLNWYQQKPGKTVKLLIYYTSRLHSGVPSRFSGSGSGTDYTLTISSLQPEDVATYFCQQGDTLPWTFGQGTKLEIKRTVAAPSVFIFPPSDEQLKSGTASVVCLLNNFYPREAKVQWKVDNALQSGNSQESVTEQDSKDSTYSLSSTLTLSKADYEKHKVYACEVTHQGLSSPVTKSFNRGEC |
| – | binds | 28G11_H2L2 (antibody, human IgG1, kappa) heavy: not shown light: DIQMTQSPSSLSASVGDRVTITCRASQDISNYLNWYQQKPGKTVKLLIYYTSRLHSGVPSRFSGSGSGTDYTLTISSLQPEDVATYFCQQGDTLPWTFGQGTKLEIKRTVAAPSVFIFPPSDEQLKSGTASVVCLLNNFYPREAKVQWKVDNALQSGNSQESVTEQDSKDSTYSLSSTLTLSKADYEKHKVYACEVTHQGLSSPVTKSFNRGEC |
| – | binds | 28G11_H2L1 (antibody, human IgG1, kappa, V domains shown) VH: EVQLVESGGGLVQPGGSLRLSCAASGFTFTDYYMSWVRQAPGKGLEWLGFIRNKPNGYTTEYSASVKGRFTISRDNSQSSLYLQMNSLKTEDTAVYYCARYTGGGYFDYWGQGTLLTVSS VL: DIQMTQSPSSLSASVGDRVTITCRASQDISNYLNWYQQKPGKVPKLLIYYTSRLHSGVPSRFSGSGSGTDYTLTISSLQPEDVATYFCQQGDTLPWTFGQGTKLEIKR |
